# Assay results: the DeepSol protein solubility set
# Assay: soluble on expression in E. coli; label from the status in PepcDB or PDB records
row,Sequence,soluble on expression in E. coli
1,MSLSLLSKLDVSPLQFQDPSKDGSKIINLNLDGSGDPLRLSELGESDYSNSIKVRDNEYVTYHLSNDYSVLTIYSMNDALQNKTINIKLPVQSTNKQHTSIVFVKDEAFNVEFILRNSIYLKISIPIDFIINNSSELNEDWFYVLQPYDFSVRKPHMLHRVSDNFSVVFLEDGGLVGLTSHGETDLEPILFNDNSYLQSITRLFSKSKHSKNSKVVSCSNYQSNFLIVLTEDCILKIWDLKKLILINEYNLFDVNNSDFIAGGLFDSCGNYLHLFNNLLTIYLPFTNGLFQVGTLDVDSSDKLTFQSKIVIPSNLPASSLWSLTDMRMINPLDLNLPETFLNIIVLWKSGTMSKLQILNILNESVDSYEWIDASNKDLEETRIESDIESSDFSKTLFKLTSRYPKAIVDRAIKVLEENGISIPLQEALDEEYLANLETLLRDIKGGCDEASSLTLYNDEIIVINCLQKYNYSIYKINCSLEKTYFDINDDSEGHHHHHH,soluble
2,MFYDGYAYHGTTFEQTYRCYPSSFIDKPQIESGDKIIMPPSALDRLASLQIDYPMLFELRNASTDSFSHCGVLEFIAEEGVIYIPYWMMQNLLLQEGDMVRVRNVTLPKGTYVKLQPHTTDFLDIANPKAILETALRNYSCLTVGDSIMVPYNNKKYFIDIVEAKPSNGISIIETDCEVDFAPPLDYKEPERPVAPAPAKGEAKAKEVDVAEAEPKFNPFTGSGRRLDGRPLSYEPQPGAANSNGQSHPVASSSSSGSEKATQQNRGKLVFGSNVERSTKETTKVGAGKDRKQEEEAEKEAKFQAFSGKKYSLRG,soluble
3,MQLRGEVTPHIGRHAFAVLAILKGMLLETLQKVFGHKSITYVLRIHSLVRRRRSNLFLEVAHLYDQRADQLSQLLIRACFNNCQFHTKILFKILNMRQSNAHPISFPNR,not soluble
4,MELASNFDEFISTQSIEEGLDFGCNLLSSALRLQGDTDPAQAQVLLQELTQYLSLRYVGEHGLALEYLAGLGHQCSPDNYRHSQFWGQLKWIANEIGLSDTALNSLALPPGVLRSGGA,not soluble
5,GMDISGRDVETRLTLAREFMSGVDELPTVPDIVLRIAGKLNDPDVAIDEVADLLLQDQVLTARVVHLANSPLYSAARPISSIRDAVIYLGLDLLREAIFTCAIVDLFKTGKGPLNRSTLWAHSLGVARIAKLIAERTGFLNPVNVYVAGLLHDVGEVFINFFRGKEFSQVVTLVDEEKITFGQAEERLFGTSHCEVGFALAKRWSLNEFICDTILYHHDIEAVPYKQAAIVAMVAFADEYCTLRRLGFEGHKPVDSVRTLLENHPSWGVIRRSLGGSDFDEKLIVAELDSSIVEIRAAVDELFLL,soluble
6,SLENENQLTHQFPTLSRWNPMFISDVHKISFHPHLQRYIGFWMGFPIRWIQIVGYIAAIDIYEGKHVLTVDDCSGMVLRVVFIIQDDFSMSKRAISMSPGNVVCVFGKINSFRSEVELIAQSFEELRDPNDEWKAWQKRMRYKKNLTKISKNHHSIIRT,soluble
7,ETIASELKAIGKELEDQKKEENIQIAKIAKEKFDFLSTFKVGPYDLIDEDIQMKIKRTLYSSLDYKKENIEKLKEILEILKKNSEHYNIIGRLIYHISWGIQFQIEQNLELIQNGVENLSQEESKSLLMQIKSNLEIKQRLKKTLNETLKVYNQNTQDNEKILAEHFNKYYKDFDTLKPAF,soluble
8,MSGRGKVKSEPMKVVFINTQYVETDARSFKTVVQELTGKNAIVAAGPFDSPSAFDGRCYDGGSKIGEDTRQLHGGGGGGGRMGTTTEFDRLFKEMPHMEELYKLWSEY,soluble
9,MGVYGMEQNFGLISIIMAAYNAENTIEKAVMSVMAQTYTQFELIIINDCSTDKTLSIIKKFEEFDKRIFLINNSYNRGVSYSRRYGLEKARGEWIAILDSDDAWAADKLEKQIRLQKEKNADLVYTGSAFMDSSGNSIEWYLHVPPEIGYRKLLKQNLISNSSALVRKELYMQYYASGDNMHEDFAIWLRILKTGRKAYGIDEPLLIYRFMRKSKSGNKLIAAKMNWNTYRYIGLDVVSRMYYMIWYMFNGLKKYITLNNEVAKV,not soluble
10,MRAGVREVIDDSSERTLQQVIERAFLRTKGAIIRQKRVFGFVSAKGGDGGSCIAANFAFALSQEPDIHVLAVDISLPFGDLDMYLSGNTHSQDLADISNASDRLDKSLLDTMVQHISPSLDLIPSPATFEKIVNIEPERVSDLIHIAASFYDYIIVDFGASIDHVGVWVLEHLDELCIVTTPSLQSLRRAGQLLKLCKEFEKPISRIEIILNRADTNSRITSDEIEKVIGRPISKRIPQDEDAMQESLLSGQSVLKVAPKSQLSKTIVDWALHLNGVSRPNKRSIWERLKIK,not soluble
11,MHHHHHHSSGVDLGTENLYFQSMSVGFIGAGQLAFALAKGFTAAGVLAAHKIMASSPDMDLATVSALRKMGVKLTPHNKETVQHSDVLFLAVKPHIIPFILDEIGADIEDRHIVVSCAAGVTISSIEKKLSAFRPAPRVIRCMTNTPVVVREGATVYATGTHAQVEDGRLMEQLLSSVGFCTEVEEDLIDAVTGLSGSGPAYAFTALDALADGGVKMGLPRRLAVRLGAQALLGAAKMLLHSEQHPGQLKDNVSSPGGATIHALHVLESGGFRSLLINAVEASCIRTRELQSMADQEQVSPAAIKKTILDKVKLDSPAGTAL,soluble
12,MEPKRIREGYLVKKGSVFNTWKPMWVVLLEDGIEFYKKKSDNSPKGMIPLKGSTLTSPCQDFGKRMFVLKITTTKQQDHFFQAAFLEERDAWVRDIKKAIKCIEGGQKFARKSTRRSIRLPETIDLGALYLSMKDPEKGIKELNLEKDKKVFNHCLTGSGVIDWLVSNKLVRNRQEGLMISASLLSEGYLQPAGDLSKNAADGIAENPFLDSPDAFYYFPDSGFFCEENSSDDDVILREEFRGVIIKQGCLLKQGTGENWKVRKFILREDPAYLHYYDPAGGEDPLGAVHLRGCVVTSVESSHDVKKSDEENLFEIITADEVHYYLQAATSKGRTEWIKAIQVASRTGK,soluble
13,MKELVVVAIGGNSIIKDNASQSIEHQAEAVKAVADTVLEMLASDYDIVLTHGNGPQVGLDLRRAEIAHKREGLPLTPLANCVADTQGGIGYLIQQALNNRLARHGEKKAVTVVTQVEVDKNDPGFAHPTKPIGAFFSDSQRDELQKANPDWCFVEDAGRGYRRVVASPEPKRIVEAPAIKALIQQGFVVIGAGGGGIPVVRTDAGDYQSVDAVIDKDLSTALLAREIHADILVITTGVEKVCIHFGKPQQQALDRVDIATMTRYMQEGHFPPGSMLPKIIASLTFLEQGGKEVIITTPECLPAALRGETGTHIIKT,soluble
14,MVSSSVARGLEDAGLKRFVPAFSGVSDQAFLGLMMSDYASYGVVELEDKQRLFRLIKSIAASVKSSDAPAPALEKPNALIDLDENDGDLLADAGVNFQLSPLANQNPKAPVPSGGGGVPPSEGEDPPKIRVVVRKRPISKKERERGDDDVVDVLAKNNTVVVNEEKVKVDLTKYLEKHAFKFDESLDENVSNEAVYQLTVGPLVRTLFRNGRASCFAYGQTGSGKTYTMSPLPIRASADIFTFMAQQQYRDISLCVSCFEIYGNKVFDLLNARKKLNILEDGKKKVVVVGLKEFGVDDVDGVKALIEESAKNRSTGSTAANADSSRSHSIMQFALKRAAPAPAGGFRRGEDAPEPRVVGKISFIDLAGSERGADTFDNNRQTRLEGAEINKSLLALKECIRALDSDARHVPFRGSKLTAVLRDSFVGDQARTVMIANISPCSSSVEHTLNTLRYADRVKELRKDKADRTPGGVTPGDDAYYAAVARAAGPGQAAAPAPERERERADLQRERDRERASDRYPSPPRQQAGAFAGGGGGGAGADGEGSAAALAERHDELMDSILLEEENLVAFHRAKLEEDMETMRQEMALLQEVDKPGSEIDHYVEQMSALLNIKRQGIQELQAKLDTFKAKLREEEALSRTVHKIRT,not soluble
15,MRVITVAGPPSVGKTSVVVKTATTLAAQGHRLGIVKFDSLSTSDDQVYRRAGLPVVVGLSGNVCPDHFFVSNIDDCVDWGRTHGVDILVAESAGLCNRCSPHVQGVQAICVVDNLSGVHTPRKIGPMLKLADVVVITKGDIVSQAEREVFAYNVRLANPRAQVMQFHGITGQGASDLAARMLCAPVVDALEGRRLRFSMPSAVCPYCIGETAIGVDHQRGNVRKMSFAEPARLEHHHHHH,soluble
16,MGSGEPNPAGKKKKYLKAALYVGDLDPDVTEDMLYKKFRPAGPLRFTRICRDPVTRSPLGYGYVNFRFPADAEWALNTMNFDLINGKPFRLMWSQPDDRLRKSGVGNIFIKNLDKSIDNRALFYLFSAFGNILSCKVVCDDNGSKGYAYVHFDSLAAANRAIWHMNGVRLNNRQVYVGRFKFPEERAAEVRTRDRATFTNVFVKNIGDDIDDEKLKELFCEYGPTESVKVIRDASGKSKGFGFVRYETHEAAQKAVLDLHGKSIDGKVLYVGRAQKKIERLAELRRRFERLRLKEKSRPPGVPIYIKNLDETINDEKLKEEFSSFGSISRAKVMMEVGQGKGFGVVCFSSFEEATKAVDEMNGRIVGSKPLHVTLGQARRRC,soluble
17,MGSSHHHHHHSSGLVPRGSVGGCLAKDGLQQSKCPDTTPKRRRASSLSRDAERRAYQWCREYLGGAWRRVQPEELRVYPVSGGLSNLLFRCSLPDHLPSVGEEPREVLLRLYGAILQGVDSLVLESVMFAILAERSLGPQLYGVFPEGRLEQYIPSRPLKTQELREPVLSAAIATKMAQFHGMEMPFTKEPHWLFGTMERYLKQIQDLPPTGLPEMNLLEMYSLKDEMGNLRKLLESTPSPVVFCHNDIQEGNILLLSEPENADSLMLVDFEYSSYNYRGFDIGNHFCEWVYDYTHEEWPFYKARPTDYPTQEQQLHFIRHYLAEAKKGETLSQEEQRKLEEDLLVEVSRYALASHFFWGLWSILQASMSTIEFGYLDYAQSRFQFYFQQKGQLTSVHSSS,soluble
18,LFQKLHQSLQVGEKEEDMYELLISSSMTTVMADAAWLEIRDNKGGLKAFQNSNIDEYDVFEIKKALRKNQVNISSEPQYIKDILSYPHTEKIKHLDYKSFLLIPLTSNNQLIGTLVLLKNLNDGFDKEMVDIIFTFVSQASISIKNFRLMSDAIQTERYQEELKIAKD,not soluble
19,MIKEKYTFDDLVEIMKILRSENGCPWDRVQNHESLKKYLIEETYEVLEVIDLNDKKRLCEELGDLLLQIVFHAQIASEDNEFDINDVITGICRKMVQRHTHVFGTDKADTAEEVLANWEEIKKKEKGMESQTEVLKSVPSNLPALMRSYKVQQKASQVGFDWKDIDSVFEKVYEEINELRDVYKSKDVERINDELGDVLFSIVNLSRFLKVQPELALMGSVNKFIERFEFIEKEAAKSGRTLSEMSLDEMDELWNKAKTKI,soluble
